According to IntAct's records for PubMed 14625560:

B1: Cell cycle serine/threonine-protein kinase hsk1 (Schizosaccharomyces pombe (strain ATCC 38366 / 972)), P50582 (parent)
chain: MAEAHITLSPKVTHEQQTDIDSECEITEVDDENVNENKSQEMIQDIPARDREEIENITRTFVELQENYRLIEKIGEGTFSSVYKAEDLHYGRYINDWDIQSEVLKESSFGKEKIPVNEDSRKPKYVAIKKIYATSSPARIYNELEILYLLRGSSVIAPLITALRNEDQVLVVLPYYEHTDFRQYYSTFSYRDMSIYFRCLFQAMQQTQTLGIIHRDIKPSNFLFDVRTKHGVLVDFGLAERYDGRQQSHSCRCTNSNAAELAHDFSIAQETSLGYIKNDTRPSKRANRAGTRGFRAPEVLFKCSSQSPKVDIWSAGVILLSFLTKRFPMFNSKDDVDALMEIACIFGKSEMRQCAALHGCTFETNVSTLTEKRVNFRKLILWASCGSASIYKEKLRHKPSQEERLCLDFLEKCLELDCNKRISAEEALDHDFLYLDNLAYEKKDDDTAFDNSFGETSFEKDEDLTAKHLSHILDFKEQEETDEPTSLSKRKRSIDEILPNDALQDGA
partner: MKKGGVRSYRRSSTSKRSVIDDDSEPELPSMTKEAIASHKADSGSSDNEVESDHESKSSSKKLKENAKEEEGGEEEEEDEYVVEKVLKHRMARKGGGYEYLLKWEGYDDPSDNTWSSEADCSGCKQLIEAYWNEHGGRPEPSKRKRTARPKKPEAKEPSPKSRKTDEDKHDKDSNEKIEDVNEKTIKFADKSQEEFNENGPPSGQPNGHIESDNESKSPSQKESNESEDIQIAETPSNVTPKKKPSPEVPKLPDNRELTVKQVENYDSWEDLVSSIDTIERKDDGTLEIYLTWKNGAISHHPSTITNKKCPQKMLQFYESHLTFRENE

Variants of: B1
Conditions: with swi6_schpo swi6, P40381

| effect of a mutation on the interaction | Variant |
| --- | --- |
| decreasing interaction | MAEAHITLSPKVTHEQQTDIDSECEITEVDDENVNENKSQEMIQDIPARDREEIENITRTFVELQENYRLIEKIGEGTFSSVYKAEDLHYGRYINDWDIQSEVLKESSFGKEKIPVNEDSRKPKYVAIKKIYATSSPARIYNELEILYLLRGSSVIAPLITALRNEDQVLVVLPYYEHTDFRQYYSTFSYRDMSIYFRCLFQAMQQTQTLGIIHRDIKPSNFLFDVRTKHGVLVDFGLAERYDGRQQSHSCRCTNSNAAELAHDFSIAQETSLGYIKNDTRPSKRANRAGTRGFRAPEVLFKCSSQSPKVDIWIAGVILLSFLTKRFPMFNSKDDVDALMEIACIFGKSEMRQCAALHGCTFETNVSTLTEKRVNFRKLILWASCGSASIYKEKLRHKPSQEERLCLDFLEKCLELDCNKRISAEEALDHDFLYLDNLAYEKKDDDTAFDNSFGETSFEKDEDLTAKHLSHILDFKEQEETDEPTSLSKRKRSIDEILPNDALQDGA [S314I] |
